# Measured values published in patent US8663964B2, “Methods of treating human papillomavirus” (Tamir Biotechnology, Inc., priority 2011, dated 2014).
# Experiments:
# [1] = tested on: cancer cells; conditions: because of enzymatic activity against RNA; cited from earlier work
# [2] = tested on: HPV type 11; assay: quantitative reverse transcriptase PCR (QRT-PCR) antiviral assay against HPV type 11 in A-431 cells; format: cell-based, type 11 human papillomavirus; conditions: HPV-11 in A-431 cells
# Protocol: To evaluate the activity of the tested RNases against type 11 HPV infections, the following quantitative PCR assay was used:
# Solutions of the tested RNases were prepared in cell culture medium without use of dimethyl sulfoxide (“DMSO”). DMSO is unnecessary because the tested RNases are water-soluble.
# HPV is an DNA virus. Antiviral activity against HPV type 11 was evaluated using a quantitative reverse transcriptase PCR (QRT-PCR) assay. Initially, on Day 1, 1 million A-431 cells were placed in 6-well dishes in Dulbecco's Modified Eagle Medium (“DMEM”) supplemented with 10% fetal bovine serum (“FBS”). The cells were then incubated for two days at 37° C.
# After this incubation period, on day 2 replicate aliquots of HPV-11 were added to each non-control well, representing a multiplicity of infection (“MOI”) of 150 particles per cell in DMEM containing 2.5% FBS.
# One day later, i.e. on day 3, DMEM with 10% FBS was added to each cell culture well.
# One day later, i.e. on day 4, the tested compounds were added to the non-control cell culture wells. Control wells received media alone, or the vehicle used to dilute the tested compounds. Cidofovir diluted to 300 ug/ml was used as a positive control. […]
# Finally, one day later, on […], QRT-PCR was carried out to quantitate the proportion of viral E1^E4 transcripts and a cellular reference RNA for the TATA-binding protein (“TBP”). […]
# [3] = cited from earlier work
Molecule,cytotoxicity to cancer cells [1],activity against type 11 HPV (as seen in FIG. 1; SI = CC50/EC50) [2],toxicity and tolerability in humans [3]
"Val11, Asn20, Arg103—Ranpirnase ['805 variant]",cytotoxic to certain cancer cells,extraordinarily active,–
"ranpirnase (protein, UniProt P22069 1-104, looked up, An RNase disclosed and claimed in U.S. Pat. No. 5,559,212; registered trademark ONCONASE) Protein P-30: QDWLTFQKKHITNTRDVDCDNIMSTNLFHCKDKNTFIYSRPEPVKAICKGIIASKNVLTTSEFYLSDCNVTSRPCKYKLKKSTNKFCVTCENQAPVHFVGVGSC",cytotoxic to cancer cells,extraordinarily active,non-toxic and well-tolerated
